Results: the supplement of paper PMC10126150
± gives the standard deviation of the averaged measurements.

Test system: ATP
Experiment: switch fluorescence ratio, 500 uM ATP over buffer (Cy3 cluster intensity, sum of 5 cycles each) (fold (ratio)); higher = stronger signal-on switching upon ATP binding; sequences stand for … in TCGTCGGCAGCGTCAGATGTGTATAAGAGACAGTTTTTTTTTTTTTTTTTTTTTTTTT…TC
Details: aptamer strand: ATP DNA aptamer (quencher-CACCTGGGGGAGTATTGCGGAGGAAGG + anchor), 100 nM annealed; ATP concentration: 500 uM
Summary of the method: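 Cy3-labelled switching-strand clusters on a modified Illumina MiSeq flow-cell were annealed to 100 nM quencher-labelled ATP aptamer and imaged first in selection buffer, then after 15 min with 500 uM ATP at 22 °C. NaOH stripping and re-annealing separated each of five buffer/ATP cycles, and clusters outside 100-1000 RFU were excluded. The fluorescence ratio sums target-cycle Cy3 intensity over buffer-cycle Cy3 intensity per cluster and averages it per switch-domain sequence.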
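Also: ATP exposure 15 min at 22 °C before imaging.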

Row | Sequence | switch fluorescence ratio
1 | AGGGTAAACG | 0.986 ± 0.024
2 | AGGGTACGGG | 1.063 ± 0.0037
3 | AGGGTATTTA | 1.007 ± 0.01
4 | AGGGTATTTG | 0.987 ± 0.011
5 | AGGGTCATCT | 1.012 ± 0.002
6 | AGGGTCGACT | 1.033 ± 0.0095
7 | AGGGTCGGTA | 1.02 ± 0.033
8 | AGGGTCTCAT | 1.02 ± 0.022
9 | AGGGTCTTGA | 1.007 ± 0.0017
10 | AGGGTGAATG | 1 ± 0.0097
11 | AGGGTGATTA | 1.01 ± 0.018
12 | AGGGTGCGGA | 0.989 ± 0.036
13 | AGGGTGGGCT | 0.996 ± 0.012
14 | AGGGTGTGCA | 0.999 ± 0.049
15 | AGGGTGTGTC | 1.007 ± 0.0098
16 | AGGGTTAGGG | 1.02 ± 0.03
17 | AGGGTTAGTT | 1.01 ± 0.013
18 | AGGGTTCGAC | 1.01 ± 0.039
19 | AGGGTTGGCT | 1.02 ± 0.052
20 | AGGGTTGGTA | 1.01 ± 0.011
21 | AGGGTTGTGA | 1 ± 0.026
22 | AGGGTTTTCG | 0.972 ± 0.022
23 | AGGTAAAGGC | 1.02 ± 0.022

Row | Sequence | switch fluorescence ratio
24 | AGGTAAAGTA | 0.915 ± 0.025
25 | AGGTAACGGG | 0.987 ± 0.0099
26 | AGGTAAGAGG | 0.96 ± 0.026
27 | AGGTAAGTGC | 1.025 ± 0.0017
28 | AGGTAATGGT | 0.998 ± 0.039
29 | AGGTAATTAG | 1 ± 0.012
30 | AGGTACTCCG | 1.09 ± 0.015
31 | AGGTAGAGGA | 1.01 ± 0.035
32 | AGGTAGTTTG | 0.9979 ± 0.0018
33 | AGGTAGTTTT | 0.982 ± 0.011
34 | AGGTATAGGA | 1.01 ± 0.013
35 | AGGTCAAGAA | 1.07 ± 0.079
36 | AGGTCAGCCT | 1.03 ± 0.029
37 | AGGTCAGCTG | 0.99 ± 0.018
38 | AGGTCGGCAA | 1.02 ± 0.014
39 | AGGTCGGCTT | 1.006 ± 0.0024
40 | AGGTCGGGCG | 0.982 ± 0.026
41 | AGGTCTAGAC | 1.04 ± 0.0095
42 | AGGTCTAGAG | 0.976 ± 0.024
43 | AGGTCTCTTT | 0.982 ± 0.021
44 | AGGTCTGGCA | 0.995 ± 0.016
45 | AGGTGACAGT | 0.982 ± 0.021
46 | AGGTGACGAG | 1.02 ± 0.014

Row | Sequence | switch fluorescence ratio
47 | AGGTGAGGGC | 1.02 ± 0.015
48 | AGGTGATGGT | 0.997 ± 0.023
49 | AGGTGCATAA | 1.05 ± 0.017
50 | AGGTGCTACG | 1.03 ± 0.012
51 | AGGTGCTCAT | 1.02 ± 0.036
52 | AGGTGCTTGA | 0.975 ± 0.078
53 | AGGTGGGATT | 1.02 ± 0.033
54 | AGGTGGGCGG | 0.969 ± 0.022
55 | AGGTGGGGTT | 0.996 ± 0.051
56 | AGGTGGGTGG | 1.02 ± 0.04
57 | AGGTGGTCGG | 0.966 ± 0.038
58 | AGGTGGTTTT | 1.014 ± 0.0041
59 | AGGTGTAATT | 0.987 ± 0.031
60 | AGGTGTATGT | 1.01 ± 0.061
61 | AGGTGTCGTC | 0.975 ± 0.018
62 | AGGTGTGTAG | 0.99 ± 0.032
63 | AGGTGTTAGC | 0.955 ± 0.046
64 | AGGTTAAGGA | 1.04 ± 0.087
65 | AGGTTAATAT | 1 ± 0.043
66 | AGGTTACCGG | 0.987 ± 0.019
67 | AGGTTAGAGG | 0.993 ± 0.016
68 | AGGTTATGCA | 1.01 ± 0.032
69 | AGGTTATGGG | 1.04 ± 0.082

Row | Sequence | switch fluorescence ratio
70 | AGGTTATTA | 0.9856 ± 0.0031
71 | AGGTTATTAT | 0.999 ± 0.029
72 | AGGTTCAGCA | 1 ± 0.013
73 | AGGTTGAAG | 0.976 ± 0.034
74 | AGGTTGAAGC | 0.993 ± 0.017
75 | AGGTTGAGGG | 0.984 ± 0.025
76 | AGGTTGCGAT | 1.01 ± 0.013
77 | AGGTTGCTCT | 0.9947 ± 0.0098
78 | AGGTTGGGTG | 1.05 ± 0.013
79 | AGGTTGGGTT | 0.997 ± 0.023
80 | AGGTTGTAAT | 1 ± 0.016
81 | AGGTTGTCAA | 0.969 ± 0.028
82 | AGGTTTAGTA | 1.02 ± 0.015
83 | AGGTTTGGCT | 1.01 ± 0.028
84 | AGGTTTGGTT | 1.01 ± 0.04
85 | AGGTTTGTAG | 0.983 ± 0.013
86 | AGGTTTTTAG | 0.944 ± 0.024
87 | AGGTTTTTCA | 0.983 ± 0.017
88 | AGGTTTTTCT | 0.987 ± 0.024
89 | AGTAAAAAGG | 0.993 ± 0.021
90 | AGTAAAAAGT | 1.02 ± 0.026
91 | AGTAAAATGG | 1.01 ± 0.038
92 | AGTAAACCAT | 1.04 ± 0.03

Row | Sequence | switch fluorescence ratio
93 | AGTAAAGTGC | 1.03 ± 0.045
94 | AGTAAAGTTA | 1.008 ± 0.008
95 | AGTAAATATA | 0.993 ± 0.022
96 | AGTAAATCCT | 1.16 ± 0.0084
97 | AGTAACCGGG | 1.02 ± 0.035
98 | AGTAAGACAG | 0.986 ± 0.08
99 | AGTAAGGTTT | 0.985 ± 0.04
100 | AGTAAGTGGG | 0.956 ± 0.048
101 | AGTAATGGG | 0.97 ± 0.054
102 | AGTAATGTAG | 1 ± 0.037
103 | AGTAATGTTT | 0.994 ± 0.02
104 | AGTAATTTGC | 1.02 ± 0.012
105 | AGTACCATGG | 1.01 ± 0.06
106 | AGTACGGTAA | 1.13 ± 0.025
107 | AGTACGTCTC | 1.04 ± 0.0099
108 | AGTAGGAAGC | 1.01 ± 0.03
109 | AGTAGGAATT | 0.99 ± 0.038
110 | AGTAGGACGC | 1.02 ± 0.018
111 | AGTAGGGGCC | 1.012 ± 0.0083
112 | AGTAGGGGG | 1 ± 0.056
113 | AGTAGTACGG | 1 ± 0.029
114 | AGTAGTGCGT | 0.997 ± 0.04
115 | AGTAGTGGGG | 0.994 ± 0.013

Row | Sequence | switch fluorescence ratio
116 | AGTATAATTT | 0.978 ± 0.045
117 | AGTATATATT | 1.003 ± 0.0035
118 | AGTATATGTG | 0.955 ± 0.023
119 | AGTATATTTT | 1.006 ± 0.0046
120 | AGTATCACGG | 1.011 ± 0.0068
121 | AGTATCGTGC | 0.9968 ± 0.0098
122 | AGTATGACGT | 0.986 ± 0.026
123 | AGTATGAGGG | 1 ± 0.076
124 | AGTATGAGTC | 1.056 ± 0.01
125 | AGTATGGTAG | 1.0145 ± 0.00092
126 | AGTATTAATG | 1 ± 0.04
127 | AGTATTAGAA | 0.978 ± 0.012
128 | AGTATTGGTT | 0.986 ± 0.021
129 | AGTCAAACGA | 1.03 ± 0.028
130 | AGTCAAATGG | 0.996 ± 0.043
131 | AGTCAAGGGT | 1 ± 0.0014
132 | AGTCAGGTT | 1.02 ± 0.019
133 | AGTCAGTCTG | 1.01 ± 0.059
134 | AGTCAGTTGG | 0.967 ± 0.041
135 | AGTCATAAAG | 0.984 ± 0.014
136 | AGTCCAAGAG | 0.9889 ± 0.0045
137 | AGTCCCGTGC | 1.03 ± 0.052
138 | AGTCCTAGCC | 0.97 ± 0.012

Row | Sequence | switch fluorescence ratio
139 | AGTCCTCGGC | 1.13 ± 0.071
140 | AGTCCTGGCC | 0.999 ± 0.022
141 | AGTCCTGGCG | 1.07 ± 0.023
142 | AGTCCTTTTT | 0.979 ± 0.021
143 | AGTCGATGTC | 0.9763 ± 0.0039
144 | AGTCGCCCGC | 1.02 ± 0.032
145 | AGTCGCGGAG | 1 ± 0.08
146 | AGTCGGGGGA | 1.01 ± 0.023
147 | AGTCGGGGTA | 1.02 ± 0.027
148 | AGTCGGTGTG | 0.963 ± 0.0099
149 | AGTCGTCTTG | 0.977 ± 0.026
150 | AGTCTAAACT | 1.02 ± 0.016
151 | AGTCTACTAT | 1 ± 0.0088
152 | AGTCTCAAGT | 1.01 ± 0.045
153 | AGTCTGAAGG | 0.995 ± 0.014
154 | AGTCTGCCA | 0.977 ± 0.015
155 | AGTCTGGGGG | 0.959 ± 0.011
156 | AGTCTTAGTC | 0.9497 ± 0.002
157 | AGTGAAGGGG | 1.1 ± 0.15
